Measurements taken from publication PMC7831021 (2021).
Bridges are numbered along the chain shown (N, C = ends). Where no end group is shown, it is not given here.

Target: beta-2-microglobulin (Homo sapiens, UniProt P61769)
Test: SPR

Chain of beta-2-microglobulin (P61769 22-119): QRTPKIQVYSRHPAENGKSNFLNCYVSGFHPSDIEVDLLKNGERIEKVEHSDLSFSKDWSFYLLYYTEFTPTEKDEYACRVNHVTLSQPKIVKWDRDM

B1: pep331 (peptide)
chain: CFETAWRQNEWC
modifications: disulfide 1-12 (inferred)
Question: For B1, which Kd is on record?
Answer: The Kd was 300 µM.
